This note sets out measurements from US20070036810A1, “Cyclic amp response element activator proteins and uses related thereto” (priority 2003, published 2007).

One assay deals with T1, endogenous CREB1 (Homo sapiens, UniProt P16220).
T1 construct: endogenous in cells; host or cells: HEK293
Put plainly: Immuno-precipitation of FLAG-tagged CREAP1 variants and Western blot against CREB in HEK293 cells. It counts as binding. Conditions: M2-agarose immuno-precipitation, Western blot against CREB. How it is done: To determine if CREAP1 can interact directly with CREB, K1 and K5 variants of CREAP1 (see Table 1) were transfected into HEK293 cell grown in 100 mm dishes (Falcon) using Fugene6 reagent (Roche Applied Science) according to the protocol provided by the manufacturer. 40 hours after transfection, cells were scraped from the plates in PBS and lysed in 800 μl of Low Stringency buffer containing: 10 mM HEPES pH 7.6, 250 mM NaCl, 5 mM EDTA, 1 mM DTT, 0.1% NP-40 and freshly dissolved protease inhibitors. Immuno-precipitation was carried out using M2-agarose beads (Sigma). Precipitated proteins were separated on 4-20% of SDS-PAGE (Invitrogen) and transferred to nitrocellulose membrane (Invitrogen). Western blot were performed using antibody against CREB (Cell Signaling Technology). As a negative control expression construct encoding FLAG-tagged human histone deacetylase 1 (HDAC1) was used.
(In western blotting, separated proteins are transferred to a membrane and probed.)

The subject of assay [1] is pCRE-Luc reporter (cyclic AMP response element). Description: pCRE-Luc reporter assay of CREAP1 deletion fragments in Hela cells. It counts as cell-based. Conditions: Flag-CREAP1 deletion constructs co-transfected with pCRE-Luc in Hela cells; Dual-Glo Luciferase 40 hrs after transfection. Here is the method: CREAP1 protein amino acids 1-170, 1-356, […], 1-580 and 170-650 are inserted into pFlag-CMV4 expression vector (Sigma, St. Louis, Mo.) by utilizing PCR strategy familiar to one of skill in the art. 10^4 Hela cells are split into each well of 96 well tissue culture plates. Cells are transfected 16 hours later with 100 ng of pCRE-Luc reporter construct, 30 ng of Renilla luciferase control plasmid together with 100 ng of pCMVSPORT6, pCMVSPORT-CREAP1 and different Flag-CREAP1 deletion fusion constructs respectively. Transfection is done with Fugene6 reagent (Roche Applied Biosciences) following the manufacturer's instructions. A Dual-Glo Luciferase assay (Promega) is conducted 40 hrs after transfection. Firefly luciferase counts are normalized to Renilla luciferase and plotted.
To dissect the functional domains within the CREAP1 molecule, CREAP1 protein fragments of amino acids 1-170, 1-356, 1-494, 1-580 and 170-650 were subcloned into pFlag-CMV4 vector by utilizing PCR based strategy and tested for function in a Dual Glo Luciferase assay as described above.
(In general: A reporter such as luciferase makes a cellular process visible.)

Entries after “also recorded” stand apart in the source; their conditions may differ.

T1 sequence (P16220 whole entry): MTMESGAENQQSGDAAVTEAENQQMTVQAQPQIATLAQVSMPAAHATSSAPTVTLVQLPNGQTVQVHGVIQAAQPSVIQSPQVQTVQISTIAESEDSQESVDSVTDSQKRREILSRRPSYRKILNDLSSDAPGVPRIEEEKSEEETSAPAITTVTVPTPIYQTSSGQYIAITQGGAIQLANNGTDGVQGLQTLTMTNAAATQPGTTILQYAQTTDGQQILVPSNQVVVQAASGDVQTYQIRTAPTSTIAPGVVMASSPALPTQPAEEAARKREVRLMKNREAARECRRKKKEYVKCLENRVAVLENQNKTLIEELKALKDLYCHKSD

B1: K1: CREAP1 fragment, amino acids 1-170, SEQ ID NO 32, Flag fusion (protein)
chain: MATSNNPRKFSEKIALHNQKQAEETAAFEEVMKDLSLTRAARLQLQKSQYLQLGPSRGQYYGGSLPNVNQIGSGTMDLPFQPSGFLGEALAAAPVSLTPFQSSGLDTSRTTRHHGLVDRVYRERGRLGSPHRRPLSVDKHGRQADSCPYGTMYLSPPADTSWRRTNSDSA
modifications: Flag tag; human
For B1, the “association with endogenous CREB1” value with endogenous CREB1 is “associated with endogenous CREB1”. Further, in assay [1], the Activity entry is on record as “not sufficient for its function; also recorded: Inactive”.
